Assay results from the RNAGym collection of RNA variant scans (doi:10.1073/pnas.2313332121).

B1: TPR t1 (parent)
chain: GACCAAUCUGCCCUCAGAGCUCGAGAACAUCUUCGGAUGCAGAGGAGGCAGGCUUCGGUGGCGCGAUAGCGCCAACGUCCUCAACCUCCAAUGCAUCCCACCACAUGAUGAUGCCUGAAGAGCCUUGGUUUUUUG

Variants of: B1
Assay: polymerase ribozyme fitness, log enrichment relative to wild type (log ratio); higher = more active; in vitro selection for triplet polymerase activity
Summary of the method: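 Mutant libraries were PCR-built and transcribed for each subunit of a heterodimeric triplet polymerase ribozyme and selected for one round in triplicate at −7 °C, frozen, before gel excision of extended constructs and streptavidin-bead capture. Input and output libraries were Illumina-sequenced, keeping genotypes with ≥10 input reads and ≥1 read per output. Fitness is a logarithmic ratio of genotype to wild-type enrichment, in base 2, using inverse-variance-weighted replicate averages.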

| Variant | polymerase ribozyme fitness (log ratio) |
| --- | --- |
| C12U G44A U131A | -1.07 |
| C12U C79A U106C | -1.41 |
| C12U C70U | 0.3 |
| C12U C70G | -2.05 |
| C12U C70A | -0.649 |
| C12U C97G C104U | -2.92 |
| C12U C124U | 1.66 |
| C12U G44C C102U | -2.5 |
| C12U C62A U81G C115A | -2.91 |
| C12U G36C A46U U112C G127U | 0.627 |
| C12U G42A | -1.82 |
| C12U G42U | -0.819 |
| C12U G42U G52U A66U C72U C115A G117A | -6.98 |
| C12U G39U | -0.353 |
| C12U G39C | -0.515 |
| C12U C114A | -1.12 |
| C12U C34A U106A U112C G120C C124G G128A | -5.07 |
| C12U C28U U78A A100C G113A | -3.61 |
| C12U G47U G63A U129A | -3.16 |
| C12U G44U U55C | -0.924 |
| C12U C62U G69A | -3.66 |
| C12U C62U | 0.166 |
| C12U G45A A95C U109G G117C A118G | -5.62 |
| C12U G39C A121C | 0.709 |

| Variant | polymerase ribozyme fitness (log ratio) |
| --- | --- |
| C12U C28U C53G U129A U130C | -2.76 |
| C12U G36C G45A | -0.823 |
| C12U C72A | 0.312 |
| C12U C72U C86U U112C | 1.05 |
| C12U G47U C85G A111C | -2.51 |
| C12U C53U G71U G77A G120C | 1.19 |
| C12U C72A C85A C94G A111C A119G U125A U133G | -4.02 |
| C12U C22U | -3.18 |
| C12U G35U C89G C115U | -6.55 |
| C12U G17U C73U C88U C104A U109A | -5.21 |
| C12U C49U G63U | -1.49 |
| C12U C34U A84G C86A G113A | -6.74 |
| C12U G45U G57A G60A U116G | -1.77 |
| C12U G61U C62U G113A | -4.94 |
| C12U G35A | -3.06 |
| C12U G61A U92A U126A | -4.38 |
| C12U C123G | 2.68 |
| C12U C40U C86U C94G U130A | -3.47 |
| C12U C34U | -3.06 |
| C12U G52U A68G A74G | -3.85 |
| C12U C104G | -4.58 |
| C12U C82U | 0.282 |
| C12U C80U C102U | -2.35 |
| C12U C22A G39A C85A C102A | -7.04 |

| Variant | polymerase ribozyme fitness (log ratio) |
| --- | --- |
| C12U C70U G71U U112A C123G | 0.00675 |
| C12U G39A C56A G71A | -4.31 |
| C12U G48C G63U U130C | -1 |
| C12U C56U G58A G71U U112C G122A | 0.796 |
| C12U C49A C73U U92C | -1 |
| C12U G36U C104U C123G | 0.937 |
| C12U G45C C104A G117A | -3.2 |
| C12U G47U G69A G110C U112G | -7.15 |
| C12U G60A G69A | -4.56 |
| C12U C53G G61C | 0.0604 |
| C12U C34U C72A U81C C102U U109G | -5.97 |
| C12U G19C | -1.79 |
| C12U G42A G61A G110A | -4.38 |
| C12U C62G C85A C88U | -2.72 |
| C12U C28A C40U | -4.66 |
| C12U G52U C53G G61C | -4.41 |
| C12U C40G A50G C64G A103U U112C C115A A118G G127U | -5.71 |
| C12U C40U C104A | -2.12 |
| C12U C73U C97A G110U C115A C124G | -6.74 |
| C12U C72G A103G C124A | -5.75 |
| C12U G60U A90G C99U | -2.17 |
| C12U G47U A119C C123A | -2.6 |
| C12U G39U C62A U78A | -1.41 |
| C12U G47U | -0.627 |

| Variant | polymerase ribozyme fitness (log ratio) |
| --- | --- |
| C12U G51A G120A G127C G128U | -1.84 |
| C12U C53G C82U G128A | -1.97 |
| C12U G17C | -3.21 |
| C12U G17U A50G U112A | 0.845 |
| C12U G42U C49G U96C | -2.37 |
| C12U G61A C73A C88A | -1.6 |
| C12U C53U | 0.906 |
| C12U G36A A66C U78C C82G A121U | -0.787 |
| C12U G36A C62G C73A | -6.24 |
| C12U G42U C49G C73U U96C | -2.57 |
| C12U C73A U96A C104U | -0.414 |
| C12U C73U A95U A111U | -2.86 |
| C12U G63C | -0.399 |
| C12U G63A | -0.293 |
| C12U C53U C98U U132A | -0.748 |
| C12U G19C A46U U112A | -0.273 |
| C12U G23A | -3.55 |
| C12U G48U C49U G63C C94U G128C | -4.36 |
| C12U G39U G61C C88G | -3.48 |
| C12U G42A A90G G128U | -2.7 |
| C12U C88A A95U C104A | -3.44 |
| C12U G36C A46U C72G U112C G127U | -1.47 |
| C12U C97A | -3.91 |
| C12U C49A | 0.257 |

| Variant | polymerase ribozyme fitness (log ratio) |
| --- | --- |
| C12U C34A G63A | -5.16 |
| C12U C34A G63C | -3.05 |
| C12U C49A C115U | -1.47 |
| C12U C85U U112C | 0.732 |
| C12U G36U A74C C94U A111G U116A | -2.62 |
| C12U C64U C72A U87C | -0.223 |
| C12U C34U G61A C104U U132A U133G | -3.5 |
| C12U C49G C56U | -0.342 |
| C12U G45A G51U | -3.98 |
| C12U G61A | 0.126 |
| C12U G36U C94U A111G U116A | -2.07 |
| C12U G57A G113C | -2.33 |
| C12U G44C C79A C89A | -1.32 |
| C12U G44A | -0.615 |
| C12U C56U G60U | -4.18 |
| C12U G45U U132C | -1.19 |
| C12U C56A G113A | -0.59 |
| C12U C102U | -1.83 |
| C12U C86G | -0.52 |
| C12U G48A | -0.765 |
| C12U G52A U78A | -0.0318 |
| C12U G39A C85U | -1.02 |
| C12U C86A C98U | -0.708 |
| C12U C70A C88U U129C | -1.99 |

| Variant | polymerase ribozyme fitness (log ratio) |
| --- | --- |
| C12U G17A U59A G61C C124A | -1.65 |
| C12U C98A | -4.29 |
| C12U G61C A119U | -1.74 |
| C12U G25C C94G G113A | -6.74 |
| C12U C22U A46U | -4.76 |
| C12U C22G G45A C94U C99U | -4.27 |
| C12U C40G C72G | -1.36 |
| C12U G36A | -0.19 |
| C12U C70U C76G U132C | -0.684 |
| C12U C22U U33A C124G | -5.71 |
| C12U G39C U78A | 0.181 |
| C12U G17C C72G C82G U112C C123U U131C | -3.8 |
| C12U C22G C72G C104A G113C A118G U129A | -6.33 |
| C12U G63C G93U | -1.29 |
| C12U C80U G110A U130C | -0.275 |
| C12U C31U | -4.34 |
| C12U G44A C88U U92G U112A U116G G135A | -5.19 |
| C12U G60C C123G | 1.46 |
| C12U G47A U87C | -0.382 |
| C12U G48U C94U | -1.04 |
| C12U C40A C99U | -4.01 |
| C12U C40U G57A G63U C88G A90G | -5.54 |
| C12U G57A G63A G113C | -5.3 |
| C12U C49A C62A C70A U78A | -4.12 |

| Variant | polymerase ribozyme fitness (log ratio) |
| --- | --- |
| C12U G48A C49G G51A U112A C123A | 0.0276 |
| C12U G47U G120U | 0.786 |
| C12U C85U A95C | -1.78 |
| C12U C62U U92C | -1.06 |
| C12U C56A A91U A121C | -0.738 |
| C12U G52A C86U C97A | -4.13 |
| C12U G45U C70G U132C | -6.34 |
| C12U G45U C82G C97G | -5.36 |
| C12U G39U C115A | -0.243 |
| C12U G51A | -2.09 |
| C12U G42A C97U | -3.11 |
| C12U G51A C79U C101A | -3.78 |
| C12U G48A C56G C72U | -1.47 |
| C12U C88A | -0.264 |
| C12U C88U | 0.381 |
| C12U C115A | 0.202 |
| C12U C72G C86U C104U G122A | -0.0421 |
| C12U C53U C124U | 1.56 |
| C12U G17U A50G G63U | -3.39 |
| C12U G19A G71A C73U C123A | -1.42 |
| C12U C70U C94U | 0.056 |
| C12U C72U A83U C99U | -3.62 |
| C12U G42A G128C U131G | -4.81 |
